In patent US20220177579A1 (Memorial Sloan Kettering, published 2022):

Biological target: T1, human CD19 on CD19(+) NALM6 acute lymphoid leukemia cells (human, UniProt P15391 20-556)
T1 sequence: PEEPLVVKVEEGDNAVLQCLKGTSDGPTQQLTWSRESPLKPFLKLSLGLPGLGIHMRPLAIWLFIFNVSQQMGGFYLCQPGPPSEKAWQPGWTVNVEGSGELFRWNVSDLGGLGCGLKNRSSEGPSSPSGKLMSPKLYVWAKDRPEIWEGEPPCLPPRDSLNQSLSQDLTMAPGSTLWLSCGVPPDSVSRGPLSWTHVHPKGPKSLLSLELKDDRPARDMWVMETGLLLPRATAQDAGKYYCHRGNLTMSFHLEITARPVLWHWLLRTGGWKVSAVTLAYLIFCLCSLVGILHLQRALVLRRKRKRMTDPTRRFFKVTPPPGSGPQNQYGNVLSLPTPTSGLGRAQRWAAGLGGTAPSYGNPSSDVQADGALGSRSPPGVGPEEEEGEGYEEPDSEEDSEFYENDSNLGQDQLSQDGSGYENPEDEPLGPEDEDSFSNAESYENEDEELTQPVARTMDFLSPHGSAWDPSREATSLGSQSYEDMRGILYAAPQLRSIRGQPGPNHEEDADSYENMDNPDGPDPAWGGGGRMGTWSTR
Assay: cell-based or functional assay

B1: CD19-BsAb BC250 (hFMC63 VL-2/VH-1b x CD3 IgG-scFv bispecific antibody) (bispecific antibody)
heavy: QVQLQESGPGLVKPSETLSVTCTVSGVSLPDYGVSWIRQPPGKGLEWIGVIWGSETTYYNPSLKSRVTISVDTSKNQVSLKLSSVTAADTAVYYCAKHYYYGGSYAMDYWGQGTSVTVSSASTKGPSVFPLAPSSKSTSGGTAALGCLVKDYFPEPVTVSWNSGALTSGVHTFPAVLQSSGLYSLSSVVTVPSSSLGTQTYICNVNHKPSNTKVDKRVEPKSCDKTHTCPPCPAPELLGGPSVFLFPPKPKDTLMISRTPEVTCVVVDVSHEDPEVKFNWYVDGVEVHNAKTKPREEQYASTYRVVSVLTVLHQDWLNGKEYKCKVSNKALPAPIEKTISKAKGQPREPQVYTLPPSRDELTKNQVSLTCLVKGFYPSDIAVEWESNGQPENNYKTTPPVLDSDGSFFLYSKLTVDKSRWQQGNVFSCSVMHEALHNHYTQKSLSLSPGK
light: DIQMTQSPSSLSASVGDRVTITCQASQDISKYLNWYQQKPGKAVKLLIYHTSRLHSGVPSRFSGSGSGTDYTLTISSLQPEDIATYFCQQGNTLPYTFGGGTKLEITRTVAAPSVFIFPPSDEQLKSGTASVVCLLNNFYPREAKVQWKVDNALQSGNSQESVTEQDSKDSTYSLSSTLTLSKADYEKHKVYACEVTHQGLSSPVTKSFNRGECTSGGGGSGGGGSGGGGSQVQLVQSGGGVVQPGRSLRLSCKASGYTFTRYTMHWVRQAPGKCLEWIGYINPSRGYTNYNQKFKDRFTISRDNSKNTAFLQMDSLRPEDTGVYFCARYYDDHYSLDYWGQGTPVTVSSGGGGSGGGGSGGGGSGGGGSGGGGSGGGGSDIQMTQSPSSLSASVGDRVTITCSASSSVSYMNWYQQTPGKAPKRWIYDTSKLASGVPSRFSGSGSGTDYTFTISSLQPEDIATYYCQQWSSNPFTFGCGTKLQITR
With B1 as the binder, how does the “EC50 for cell lysis of NALM6 cells (standard 4-hour 51Cr release assay with activated T cells)” value read?
The value was 0.042 pM.
